T1: SLM2 (T-STAR) STAR domain (UniProt O75525 1-183)
T1 sequence: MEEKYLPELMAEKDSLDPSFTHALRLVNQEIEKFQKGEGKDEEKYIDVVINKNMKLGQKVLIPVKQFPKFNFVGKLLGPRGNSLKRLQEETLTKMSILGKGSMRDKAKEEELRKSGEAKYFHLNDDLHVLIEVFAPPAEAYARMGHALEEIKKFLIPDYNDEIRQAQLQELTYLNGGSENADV


Assays:
[1] = target: T1, SLM2 (T-STAR) STAR domain; assay: fluorescence polarization; FP buffer, salt, pH and temperature not given in the material; SD from three independent experiments; conditions: protein: recombinant; chain copies: 2; label: 5' fluorescein
Sam68 STAR domain = Sam68 STAR domain (UniProt Q07666 97-283); assay: as above; conditions: protein: recombinant; chain copies: 2; label: 5' fluorescein
Sam68 STAR domain, sequence (Q07666 97-283): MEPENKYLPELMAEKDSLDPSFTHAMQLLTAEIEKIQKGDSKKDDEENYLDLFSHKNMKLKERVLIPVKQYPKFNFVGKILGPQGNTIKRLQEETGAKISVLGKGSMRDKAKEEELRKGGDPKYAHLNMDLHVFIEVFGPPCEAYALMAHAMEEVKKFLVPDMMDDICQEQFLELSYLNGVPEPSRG

| Binder | Kd [1] [µM] | Kd (Sam68 STAR domain) [µM] |
| --- | --- | --- |
| Nrxn2 WT (ssRNA) RNA: CCCAAUUAAUUAAUUAAUUAACUAACUAACUAACUUUAAAAACACGAUCUUAAA | 5.9 ± 0.9 | 2.9 ± 0.3 |
| Nrxn2 mutant 7 (ssRNA) RNA: CCCAAUUAAUUAAUUAAUUAACUAACCCACCCACCCUAAAAACACGAUCUUAAA | 3.9 ± 0.4 | 3.4 ± 0.3 |
